Reference: US20100196361A1 (published 2010)

Target: T1, Tie1-Fc immobilized on a CM5 chip (species not stated)
T1 construct: also called immobilized Tie1-Fc
Experiment: SPR, Tie1-Fc immobilized to the CM5 sensor chip, bivalent anti-Tie1 as analyte
Method: Affinity analysis of the Fab and IgGs was performed using surface plasmon resonance using a BIAcore 3000 instrument. For this analysis both dimeric (Tie1-Fc fusion protein) and monomeric (Tie1-HIS) versions of the extracellular domain of the Tie1 were used. The sensor chips used in these experiments were CM5 (dextran-coated) which allow immobilization of proteins to the chip via standard amine coupling chemistries. The concentration of flowed antibody was determined using a surface plasmon resonance based method. Using a high-density protein A sensor chip, under mass transport limited conditions, the response signal is dependent only on the concentration of the antibody in the sample under test. This approach allows a precise determination of the antibody concentration, a parameter important for accurate determination of the KD.

B1: DX-2220 (full length IgG1, germlined human anti-Tie1 antibody E3b) (antibody, V domains shown)
VH: EVQLLESGGGLVQPGGSLRLSCAASGFTFSMYGMVWVRQAPGKGLEWVSVISPSGGNTGYADSVKGRFTISRDNSKNTLYLQMNSLRAEDTAVYYCARAPRGYSYGYYYWGQGTLVTVSS
VL: DIQMTQSPSSLSASVGDRVTITCRASQGIGHYLAWYQQKPGKVPKLLIYTASTLQSGVPSRFSGSGSGTDFTLTISSLQPEDVATYYCQQFNSYPHTFGQGTRLEIKR
notes: Heavy and light chain frameworks germlined; also called E3b-IgG1; germlined E3b IgG1
With B1 the Kd was 0.2 nM and the “fold increase in affinity (against the anti-Tie1 Fab)” value was over 10 fold.
